Laboratory results taken from paper PMC6441893.

Molecular target: biotinylated histone H3 peptide acetylated at K14 (residues 1-21)
Assay: BLI; biotinylated H3 or H3K14ac peptide (25 nM) immobilised on streptavidin sensors; BD proteins at 1 or 2 uM; 25 °C; 20 mM Tris pH 7.5, 300 mM NaCl, 1 mM TCEP, 1 uM ZnCl2, 10% glycerol, 0.5 mg/mL BSA; apparent Kd from a double exponential fit

| binding ratio, acetylated versus nonacetylated H3K14 peptide (H3:H3K14ac) | Substance |
| --- | --- |
| 1.5 | BD4 protein of PBRM1, GST removed (domain or fragment) |
| 6.8 | BD234 protein of PBRM1, GST removed (domain or fragment) |
| 12.3 | BD245 protein of PBRM1, GST removed (domain or fragment) |
| 1.7 | BD2 protein of PBRM1, GST removed (domain or fragment) |
